Here are results for two proteins from publication PMC9520691 (ACS Omega, 2022).

“And” between values parts separate entries of the source, which are not always exact repeats. Equal entries are not always repeated.

This data set deals with the molecule itself. The data set is described as follows: AUC.

B1: full length ODC wildtype (enzyme, human, UniProt P11926 1-461, looked up)
chain: MNNFGNEEFDCHFLDEGFTAKDILDQKINEVSSSDDKDAFYVADLGDILKKHLRWLKALPRVTPFYAVKCNDSKAIVKTLAATGTGFDCASKTEIQLVQSLGVPPERIIYANPCKQVSQIKYAANNGVQMMTFDSEVELMKVARAHPKAKLVLRIATDDSKAVCRLSVKFGATLRTSRLLLERAKELNIDVVGVSFHVGSGCTDPETFVQAISDARCVFDMGAEVGFSMYLLDIGGGFPGSEDVKLKFEEITGVINPALDKYFPSDSGVRIIAEPGRYYVASAFTLAVNIIAKKIVLKEQTGSDDEDESSEQTFMYYVNDGVYGSFNCILYDHAHVKPLLQKRPKPDEKYYSSSIWGPTCDGLDRIVERCDLPEMHVGDWMLFENMGAYTVAAASTFNGFQRPTIYYVMSGPAWQLMQQFQNPDFPPEVEEQDASTLPVSCAWESGMKRHRAACASASINV
As to B1, the “stoichiometry N” value stood at 2.

B2: full length ODC G84R (enzyme, human, UniProt P11926 1-461, looked up)
chain: MNNFGNEEFDCHFLDEGFTAKDILDQKINEVSSSDDKDAFYVADLGDILKKHLRWLKALPRVTPFYAVKCNDSKAIVKTLAATRTGFDCASKTEIQLVQSLGVPPERIIYANPCKQVSQIKYAANNGVQMMTFDSEVELMKVARAHPKAKLVLRIATDDSKAVCRLSVKFGATLRTSRLLLERAKELNIDVVGVSFHVGSGCTDPETFVQAISDARCVFDMGAEVGFSMYLLDIGGGFPGSEDVKLKFEEITGVINPALDKYFPSDSGVRIIAEPGRYYVASAFTLAVNIIAKKIVLKEQTGSDDEDESSEQTFMYYVNDGVYGSFNCILYDHAHVKPLLQKRPKPDEKYYSSSIWGPTCDGLDRIVERCDLPEMHVGDWMLFENMGAYTVAAASTFNGFQRPTIYYVMSGPAWQLMQQFQNPDFPPEVEEQDASTLPVSCAWESGMKRHRAACASASINV
With B2, the “stoichiometry N” value is 2 and 3.
